Experimental data from patent US8114412B2, “T. cruzi-derived neurotrophic agents and methods of use therefor” (priority 1999, dated 2012).
“Also recorded” adds a separate entry of the source.

Columns and labels:
[1] = system: Akt kinase in human Schwann cells; experiment: Kinase assay of Akt in vitro (GSK-3α substrate) from Schwann cell lysates; format: cell-based; conditions: CD 500 ng/ml, 2 minutes
[2] = system: normal human neutrophils; experiment: IL-6 production by normal human neutrophils; format: cell-based
[3] = system: PC12 cells; experiment: Neurite outgrowth assay in PC12 cells; format: cell-based, rat
Description: PC12 cells were obtained from ATCC (Manassas, Va. (Accession No. CRL-1721)) and cultured on collagen-coated dishes in RPMI 1640 supplemented with 10% horse serum and 5% fetal bovine serum (Greene, L. A. and Tishler, A. S., Proc. Natl. Acad. Sci. USA, 73: 2424-2428 (1976)). For differentiation and survival experiments, cells were washed three times in serum-free RPMI/0.2% BSA, plated in the same medium in collagen-coated plastic dishes at 2×10^5/ml, without and with growth factors, TS, recombinant proteins, synthetic peptides, for the time and concentrations indicated in the Figures.
96-well microtiter plates were coated overnight at 4° C. with the TS or peptides or fragments thereof, or with control proteins laminin (Ln) or bovine serum albumin (BSA) at 500 μg/ml. After removing the compounds, the plates were further incubated with 1% BSA for 1 hour at room temperature and immediately used as substratum for PC12 or N18 (Prasad, K. N., Biol Rev Camb Philos Soc, 66:431-451 (1991)) cells in serum-free RPMI/0.2% BSA. Neurite outgrowth was measured using a phase-contrast microscope 17 hours later.

[4] = system: DS-1 B-lymphoma cells; experiment: Bioassay for IL-6 with IL-6 dependent DS-1 cells; format: cell-based, human; conditions: conditioned media of PBMC or T-24 cells (TS 1 μg/ml, 24 hr) diluted into IL-6 free media; or TS 1 μg/ml directly
Procedure: Bioassay for IL-6 was performed using IL-6 dependent human DS-1 cells (Bock et al., Cytokine 5: 480-489 (1993), ATCC Accession No. CRL-11102). Briefly, 1×10^4 cells/well were plated in 96-well plates and incubated for 24 hrs in IL-6-free medium (10% FCS in RPMI) containing several dilutions of TS-conditioned media or exogenous rIL-6. The cultures were pulsed with 0.5 μCi ^3H-thymidine for 4 hrs and harvested to determine radioactivity incorporation using a microplate scintillation instrument (Packard). In some studies, a neutralizing anti-IL-6 rabbit IgG or normal rabbit IgG (Endogen) was added to the dilutions of TS-conditioned prior to assaying for growth-stimulation of DS-1 cells. TS conditioned media was prepared by incubating PBMC or T-24 cells for 24 hr in 10% FCS/RPMI without (CM) or with (TS/CM) TS at 1 μg/ml. Supernatants were centrifuged at 1,000×g to remove cell debris and were kept frozen at −20° C. until use.

[5] = system: IL-6 mRNA in PBMC; experiment: RT-PCR of IL-6 mRNA in PBMC; format: cell-based, human
Procedure: Semiquantitative analysis of cytokine mRNA was performed by the primer-dropping method (Wong et al., Anal. Biochem. 223:251-258, […])). […] Two μg of total RNA were converted to cDNA in a volume of 20 μl using random hexamer primers according to the manufacturer's instructions (GIBCO-BRL). Synthetic DNA primers for human IL-6 were 5′[…] (SEQ ID NO:24) and 5′[…] (SEQ ID NO:25), and for GAPDH were those described in Example 1 (SEQ ID NO: 10 and SEQ ID NO:11). The PCR mixture contained 20 mM Tris-HCl pH 8.4, 50 mM KCl, 1.5 mM MgCl2, 1 mM dNTP, 200 pM primers and 1 U of Taq polymerase in 50 μl. Thermal cycling conditions were: denaturation step 95 degrees for 5 min; 35 cycles of 95 degrees 30 sec, 60 degrees 30 sec and 75 degrees 1 min, and a final step of 75 degrees for 5 min. At cycle number 9, GAPDH primers were added. Five microliters of the PCR product were alalyzed by electrophoresis through 2% agarose-gel in the presence of 1 μg/ml ethidium bromide.

[6] = system: human intestinal microvascular endothelial cells (HIMEC); experiment: IL-6 secretion by HIMEC (ELISA); format: cell-based
Procedure: Primary cultures of human intestinal microvascular endothelial cells (HIMEC) isolated from normal jejunal mucosa/submucosal tissue were prepared as described (Strong et al., Gastroenterology 114: 1244-1256 (1998)). The HIMEC were cultured in fibronectin-coated plasticware in MCDB medium (Sigma) supplemented with 20% FBS, 90 μg/ml heparin and 50 μg/ml endothelial cell growth factor (Sigma). T-24 cells (ATCC Accession No. HTB-4) were cultured in M199 medium supplemented with 10% FBS. PBMC were purified by Ficoll-Paque gradient as described (Current Protocols in Immunology, pp 7.1.1-7.1.2). Vero cells (ATCC Accession No. CCL-81) were grown in RPMI medium with 5% Nu serum and infected with the Silvio X-10/4 of T. cruzi as described previously (Chuenkova et al., J. Exp. Med. 181: 1693-1703, (1995)).
Endothelial cells and T-24 cells were plated on 24-well plates at a density of 1×10^3 cells/well, while peripheral blood mononuclear cells (PBMC) were plated in the similar wells at 1×10^6/well. Triplicat cultures of cells were incubated test agents for a predetermined amount of time. […] Cytokines and chemokines released in the culture supernatants were measured by ELISA assay following the instructions of the manufacturer (Endogen). The cytokines tested were IL-1β, IL-4, IL-8, IL-10, IL-12, IFN-γ, TNF-α, and the chemokines RANTES and MCP-1. Negative controls were cells incubated in medium containing polymixin B at 10 μg/ml, and positive controls were cells incubated with bacterial LPS at the low ng/ml range (for PBMC or HIMEC) or in the μg/ml range for carcinoma T-24 cells. In some experiments, IL-1β, or TNFα were used as positive control for cytokine release.

Molecule	Akt kinase activity in control GFP-transfected Schwann cells [1]	Akt kinase activity in Schwann cells over expressing AktKI ([1]; listed as CD)	IL-6 production by normal human neutrophils [2]	concentration range at which TS was active in neurite extension [3]	time PC12 neurites remained extended ([3]; after a single dose of TS)	time until PC12 neurites became visible ([3]; after a single dose of TS)	neurite outgrowth in PC12 cells ([3]; neurite outgrowth assay, concentration not given)	neurite outgrowth in PC12 cells ([3]; soluble in serum-free RPMI-1640/0.2% BSA, collagen coated dishes, 16 hours, NGF 0.1 μg/ml, VCNA 2.4 μg/ml, TS 1 μg/ml)	proliferation/growth of IL-6-dependent DS-1 cells [4]	expression of IL-6 mRNA in PBMC ([5]; TS 1 μg/ml, 4, 10 or 24 hours)	time of maximal upregulation of IL-6 transcripts ([5]; after TS stimulation)	IL-6 secretion by HIMEC ([6]; 24 hrs culture)	bacterial LPS concentration inducing the same quantity of IL-6 in HIMEC ([6]; TS 1 μg/ml)	stimulation time for maximum IL-6 secretion in HIMEC ([6]; TS 1 μg/ml)
TS-F: recombinant full catalytic domain of TS, amino acid residues 33-666, His-tagged, expressed in E. coli (protein, listed as Trypanosoma cruzi, His tag, recombinant full catalytic domain of TS, amino acid residues 33-666, His-tagged, expressed in E. coli) ETQIAIKNSRVSSVSRVVDPTVIVKGNKLYVLVGSYYSSRSYWSSHGDARDWDILLAVGEVTKSTAGGKITASIKWGSPVSLKKFFPAEMEGMHTNQFLGGAGVAIVASNGNLVYPVQVTNKRKQVFSKIFYSEDDGKTWKFGKGRSDFGCSEPVALEWEGKLIINTRVDWKRRLVYESSDMEKPWVEAVGTVSRVWGPSPKSNQPGSQTSFTAVTIEGMRVMLFTHPLNFKGRCVRDRLNLWLTDNQRIYNVGQVSIGDENSAYSSVLYKDDKLYCLHEINTDEVYSLVFARLVGELRIIKSVLRSWKNWTATCPAFAPLLIQPLRRQRVVVVPLSPRLVLLAFCRQRLPKRMGGSYRCVNASTANAERVRNGLKFAGVGGGALWPVSQQGQNQRYRFANHAFTLVASVTIHEAPRAASPLLGASLDSSGGKKLLGLSYDEKHQWQPIYGSTPVTPTGSWETGKRYHLVLTMANKIGSVYIDGELLEGSGQTVVPDGRTPDISHFYVGGYKRSDMPTISHVTVNNVLLYNRRQLNTEEIRTLFLSQDLIGTEAHMDSSSDSSAHSTPSTPADSSAHSTPSTPVDSSAHSTPSTPADSSAHGTPSTPVDSSAHGTPSTPADSSAHGTPSTPVDS	stimulation of Akt activity	inability of CD to enhance endogenous Akt enzymatic activity; also recorded: did not activate Akt kinase	–	–	–	–	–	–	–	–	–	–	–	–
TS: T. cruzi trans-sialidase purified by immuno-affinity chromatography from supernatants of infected Vero cells (SEQ ID NO:2, SEQ ID NO:34) (protein, listed as Trypanosoma cruzi) MVAIADARYETSSENSLIDTVAKYSVDDGETWETQIAIKNSRVSSVSRVVDPTVIVKGNKLYVLVGSYYSSRSYWSSHGDARDWDILLAVGEVTKSTAGGKITASIKWGSPVSLKKFFPAEMEGMHTNQFLGGAGVAIVASNGNLVYPVQVTNKRKQVFSKIFYSEDDGKTWKFGKGRSDFGCSEPVALEWEGKLIINTRVDWKRRLVYESSDMEKPWVEAVGTVSRVWGPSPKSNQPGSQTSFTAVTIEGMRVMLFTHPLNFKGRCVRDRLNLWLTDNQRIYNVGQVSIGDENSAYSSVLYKDDKLYCLHEINTDEVYSLVFARLVGELRIIKSVLRSWKNWTATCPAFAPLLIQPLRRQRVVVVPLSPRLVLLAFCRQRLPKRMGGSYRCVNASTANAERVRNGLKFAGVGGGALWPVSQQGQNQRYRFANHAFTLVASVTIHEAPRAASPLLGASLDSSGGKKLLGLSYDEKHQWQPIYGSTPVTPTGSWETGKRYHLVLTMANKIGSVYIDGELLEGSGQTVVPDGRTPDISHFYVGGYKRSDMPTISHVTVNNVLLYNRRQLNTEEIRTLFLSQDLIGTEAHMDSSSDSSAHSTPSTPADSSAHSTPSTPVDSSAHSTPSTPADSSAHGTPSTPVDSSAHGTPSTPADSSAHGTPSTPVDSSAHSTPSTPVDSSAHSTPSTPVDSSAHGAPSTPADSSAHGTPSTPVDSSAHGTPSTPADSSAHSTPSTPADSSAHSTPSTPADSSAHSTPSTPVDSSAHGTPSTPADSSAHSTPSTPADSSAHGTPSTPVDSSAHSTPSTPVDSSAHGTPSTPVDSSAHSTPSTPVDSSAHGTPSTPVDSSAHSTPSTPADSSAHSTPSTPADSSAHGTPSTPVDSSAHSTPSTPADSSAHSTPSTPVDSSAHSTPSTPADSSAHGTPSTPVDSSAHGTPSTPADSSAHSTPSTPADSSAHSTPSTPADSSAHSTPSTPVDSSAHSTPSTPADSSAHSTPSTPADSSAHSTPSTPADSSAHSTPSTPVDSSAHSTPSTPADSSAHGTPSTPADSSAHSTPSTPVDSSAHSTPSTPADSSAHGTPSTPADSSAHSTPSTPADSSAHGTPSTPADSSAHSTPSTPAGSSANGTVLILPDGAALSTFSGGGLLLCACALLLHVFFMAVF	–	–	did not produce detectable IL-6	0.125 nM	about 24 hours	3 h	induced neurite outgrowth	induces neurite outgrowth	did not restore growth of the DS-1 cells; also recorded: did not induce proliferation	induces expression of IL-6 mRNA	4 to 10 h	potently and specifically induced IL-6 secretion; also recorded: elevated in the conditioned supernatants in a manner dependent on the TS input	50 ng/mL	24 h
